Data on three molecules can be found in patent US8822645B2, “Prostaglandin E2 dual variable domain immunoglobulins and uses thereof” (AbbVie Inc., priority 2008, dated 2014).

Broadly, the Kd is the equilibrium constant for the complex coming apart. The IC50 is the midpoint of a concentration-inhibition curve. As usually defined, the EC50 is the midpoint of the concentration-response curve. By koff is commonly meant a measure of how fast the partners let go of each other.

The nature of data set [1]: 3H-PGE2 ELISA (PGE2 binding affinity). On the procedure:
Alternatively, prostaglandin binding screen for antibodies or DVD-Ig molecules can be determined using a ^3H-PGE2 ELISA. Plates were coated at 50 μl/well with 5 μg/ml of goat anti-human IgG (Fc) (Thermo Scientific #31170, Hudson, N.H.) or goat anti-mouse IgG (Fc) (Thermo Scientific #31125, Hudson, N.H.) in PBS and incubated overnight at 4° C. The following day plates were flicked and blotted dry. Plates were then blocked with 200 μL/well of Superblock (Thermo Scientific #37515, Hudson, N.H.), for 1 hour at room temperature. Plates were flicked and blotted dry. Monoclonal antibodies were diluted to 0.04 μg/ml in PBST (Abbott Bioresearch Center, Worcester, Mass.)/10% Superblock and 50 uL of each antibody or DVD-Ig was added to each well of the pre-blocked ELISA plate at 2 ng/well and incubated for 1 hour at room temperature. Wells were washed 3 times with PBS+0.1% Tween-20. A serial 3 fold titration of ^3H-PGE2 (Perkin Elmer #NET-428, Waltham, Mass.) was prepared in PBST+10% Superblock. Fifty microliters of the ^3H-PGE2 solution was then added to each well of the plate and incubated for 1 hour at room temperature. Wells were washed 6 times with PBST+10% Superblock and 50 μL of scintillation fluid (Perkin Elmer #6013621, Waltham, Mass.) added to each well. Plates were read using the TopCount reader (Perkin Elmer, Waltham, Mass.) with a 5 minutes count delay. EC50 number was determined using GraphPad Prism 5 (GraphPad Software, La Jolla, Calif.).
On the technique in general: ELISA stands for enzyme-linked immunosorbent assay.

Data set [2] has as its system PGE2 / human EP4 receptor in HEK293 Gα16 cells. The data set is described as follows: EP4 bioassay (Ca++ flux, neutralization of PGE2). The format is cell-based. Particulars: for IC50: EP4 assay. Here is the method: The ability of anti-PGE2 antibodies and anti-PGE2 containing DVD-Ig molecules to inhibit the cellular response of PGE2 was determined in a Ca++ flux assay in HEK293 Gα16 cells stably transfected with human EP4 receptor. Cells were plated in black/clear poly-D-lysine plates, (Corning #3667, Corning, N.Y.) and incubated with Ca++-sensitive dye (Molecular Devices) for 90 minutes. Stock PGE2 (in 200 proof ethanol) was diluted with FLIPR buffer (containing 1×HBSS (Invitrogen, Carlsbad, Calif.), 20 mM HEPES (Invitrogen, Carlsbad, Calif.), 0.1% BSA (Sigma, St. Louis, Mo.) and 2.5 mM Probenecid (Sigma, St. Louis, Mo.)). Anti-PGE2 antibodies, DVD-Ig molecules or isotype matched control antibodies were also pre-diluted in FLIPR buffer. 25 μl of PGE2 or pre-incubated PGE2/antibody mixture or pre-incubated PGE2/DVD-Ig molecule mixture was added to the wells pre-plated with cells. A dose response of PGE2 was done by a serial titration of PGE2 and was determined using FLIPR1 or Tetra (Molecular Devices). EC50 was determined using GraphPad Prism 5 (GraftPad Software, La Jolla, Calif.). […] Ca++ flux was monitored using FLIPR1 and data was analyzed using GraphPad Prism 5.
The ability of anti-PGE2 antibodies and anti-PGE2 containing DVD-Ig molecules to inhibit the cellular response of PGE2 was determined in a Ca++ flux assay using stably transfected human EP4 in HEK293 Gα16 cells. Cells were plated in black/clear Poly-D-Lysine plates, (Corning #3667) and incubated with Ca++-sensitive dye (Molecular Devices) for 90 minutes. Stock PGE2 (in 200 proof ethanol) was diluted with FLIPR buffer (containing 1×HBSS, 20 mM HEPES, 0.1% BSA and 2.5 mM Probenecid). Anti-PGE2 antibodies, DVD-Ig molecules or isotype matched control antibodies were also pre-diluted in FLIPR buffer. 25 μl of PGE2 or pre-incubated PGE2/antibody mixture or pre-incubated PGE2/DVD-Ig molecule mixture was added to the wells pre-plated with cells. A dose response of PGE2 was done by a serial titration of PGE2 and was determined using FLIPR1 or Tetra (Molecular Devices). EC50 was determined using GraphPad Prism 5. […] Ca++ flux was monitored using FLIPR1 and data was analyzed using GraphPad Prism 5.

The nature of data set [3]: PGE2-biotinamide ELISA (PGE2 binding). Conditions: PGE2 VD in C-terminal position, read-out: Direct Bind ELISA C-terminal VD EC50. On the procedure: (§1) Enzyme linked immunosorbent assays to screen for anti-PGE2 antibodies or anti-PGE2 containing DVD-Ig molecules that bind prostaglandin E2 were performed as follows. ELISA plates (Costar 3369, Corning, N.Y.) were coated with 50 μl of anti-host Fc IgG (Sigma, St. Louis, Mo.) at 2 μg/ml in PBS (Invitrogen Carlsbad, Calif.). Following an overnight incubation at 4° C., the plate was blocked with 200 μl Superblock (Pierce #37535, Rockford, Ill.). The IgG or DVD-Ig containing samples were diluted to 1 μg/ml in Assay Buffer (10% Superblock in PBS containing 0.05% Surfactamps (Pierce #37535, Rockford, Ill.) and incubated on the plate at 50 μl/well for 1 hour at room temperature. Following the incubation, plates were washed four times with TTBS (Tween-Tris Buffered Solution). For PGE2 binding, PGE2-biotinamide (Cayman Chemicals, Ann Arbor, Mich.) was diluted to 30 nM and serially diluted in Assay Buffer. The titration curve was added to each IgG or DVD-Ig sample at a volume of 50 μl/well and incubated for 1 hour at room temperature. The plates were washed as previously described and 50 μl/well of 1:5000 dilution of streptavidin polyhrp40 (Fitzgerald Industries, Concord, Mass.) in Assay Buffer was added and incubated for 45 minutes at room temperature. A final wash step was performed and the plates were developed using a single step TMB system (Sigma #T8665, St. Louis, Mo.) and 2N H2SO4. Plates were read at 450 nm on a Molecular Devices Spectramax plate reader (Sunnyvale, Calif.). EC50 was determined using GraphPad Prism 5 (GraphPad Software, La Jolla, Calif.) (FIG. 2).
as §1, with “ELISA” for “Enzyme linked immunosorbent assays to screen for anti-PGE2 antibodies or anti-PGE2 containing DVD-Ig molecules that bind prostaglandin E2 were performed as follows. ELISA”, “(Invitrogen,” for “(Invitrogen”, “IgG” for “IgG or DVD-Ig”, “Solution).” for “Solution). For PGE2 binding,”, “Calif.).” for “Calif.) (FIG. 2).”

Data set [4] has as its system target antigen. The data set is described as follows: BIACORE affinity determination of parent antibodies and DVD-Ig constructs. The class given is binding. Particulars: antigen IL-15, 25° C. Here is the method:
The BIACORE assay (Biacore, Inc, Piscataway, N.J.) determines the affinity of antibodies or DVD-Ig with kinetic measurements of on-rate and off-rate constants. […] All chemicals are obtained from Biacore® AB (Uppsala, Sweden) or otherwise from a different source as described in the text. For example, approximately 5000 RU of goat anti-mouse IgG, (Fcγ), fragment specific polyclonal antibody (Pierce Biotechnology Inc, Rockford, Ill.) diluted in 10 mM sodium acetate (pH 4.5) is directly immobilized across a CM5 research grade biosensor chip using a standard amine coupling kit according to manufacturer's instructions and procedures at 25 μg/ml. Unreacted moieties on the biosensor surface are blocked with ethanolamine. Modified carboxymethyl dextran surface in flowcell 2 and 4 is used as a reaction surface. Unmodified carboxymethyl dextran without goat anti-mouse IgG in flow cell 1 and 3 is used as the reference surface. For kinetic analysis, rate equations derived from the 1:1 Langmuir binding model are fitted simultaneously to association and dissociation phases of all eight injections (using global fit analysis) with the use of Biaevaluation 4.0.1 software. Purified antibodies or DVD-Ig are diluted in HEPES-buffered saline for capture across goat anti-mouse IgG specific reaction surfaces. Antibodies or DVD-Ig to be captured as a ligand (25 μg/ml) are injected over reaction matrices at a flow rate of 5 μl/min. The association and dissociation rate constants, kon (M^−1 s^−1) and koff (s^−1) are determined under a continuous flow rate of 25 μl/min. Rate constants are derived by making kinetic binding measurements at different antigen concentrations ranging from 10-200 nM. The equilibrium dissociation constant (M) of the reaction between antibodies or DVD-Igs and the target antigen is then calculated from the kinetic rate constants by the following formula: KD=koff/kon. Binding is recorded as a function of time and kinetic rate constants are calculated. In this assay, on-rates as fast as 10^6 M^−1 s^−1 and off-rates as slow as 10^−6 s^−1 can be measured.

The nature of data set [5]: Size exclusion chromatography, percent monomer of parent antibodies and DVD-Ig constructs. The class given is physicochemical. Here is the method: Antibodies were diluted to 2.5 mg/mL with water and […] is analyzed on a Shimadzu HPLC system using a TSK gel G3000 SWXL column (Tosoh Bioscience, cat#k5539-05k). […] The HPLC system operating conditions are the following: […]
Background: Size exclusion chromatography separates by hydrodynamic size, large species first.

B1: 2B5-hSL-8C11: anti-murine TNFα/anti-PGE2 DVD-Ig, human short linker, SEQ ID 106/107 (antibody)
heavy: QVQLQQSGPELVRPGSSVKISCKASGYTFTKYWLGWVKQRPGHGLEWIGDIYPGYDYTHYNEKFKDKATLTVDTSSSTAYMQLSSLTSEDSAIYYCARSDGSSTYWGQGTLVTVSAASTKGPEFQLQQSGPELVKPGASVRISCKASGYSFTDYNMNWVKQSNGKSLEWVGVINPNYGSSTYNQKFKGKATLTVDQSSSTAYMQLNSLTSEDSAVYYCARKWGQLGRGFFDVWGTGTTVTVSS
light: DVLMTQTPLSLPVSLGDQASISCTSSQNIVHSNGNTYLEWYLQRPGQSPKLLIYKVSNRFSGVPDRFSGSGSGTVFTLKISRVEAEDLGVYYCFQVSHVPYTFGGGTKLEIKRTVAAPQIVLSQSPAILSASPGEKVTMTCRASSSVSYMHWFQQKPGSSPKPWIYATSNLASGVPARFSGSGSGTSYSLTISRVEAEDAATYYCQQWSSSPLTFGAGTKLELKR
For B1, the Kd in data set [1] was found to be 0.238 nM. Besides, in data set [2], the IC50 stood at 0.02 nM.

B2: DVD154: DVD-Ig construct listed in Table 4 (antibody)
VH: EVQLVQSGAEVKKPGESLKISCKVSGYFFTTYWIGWVRQMPGKGLEYMGIIYPGDSDTRYSPSFQGQVTISADKSISTAYLQWSSLKASDTAMYYCARGGNWNCFDYWGQGTLVTVSSASTKGPEVQLVQSGAEVKKPGASVKVSCKASGYTFTKYWLGWVRQAPGQGLEWMGDIYPGYDYTHYNEKFKDRVTLTTDTSTSTAYMELRSLRSDDTAVYYCARSDGSSTYWGQGTLVTVSS
VL: EIVLTQSPGTLSLSPGERATLSCRASQSVSSSYLAWYQQKPGQAPRLLIYGASRRATGIPDRFSGSGSGTDFTLTISRLEPEDFAVYYCQRYGSSHTFGQGTKLEISRTVAAPDVLMTQTPLSLPVTPGEPASISCTSSQNIVHSNGNTYLEWYLQKPGQSPQLLIYKVSNRFSGVPDRFSGSGSGTDFTLKISRVEAEDVGVYYCFQVSHVPYTFGGGTKVEIKR
Turning to B2, the EC50 was 1.54 nM in data set [3] and 0.029 nM in data set [2] (PGE2 VD in C-terminal position, EP4 bioassay, Ca++ flux, read-out: C-terminal VD PGE2 Neutralization EC50). Moreover, the koff in data set [4] is 0.00198 s⁻¹. The “% Monomer (purity)” value in data set [5] was found to be 88.7%.

B3: 2B5-hLL-8C11: anti-murine TNFα/anti-PGE2 DVD-Ig, human long linker, SEQ ID 108/109 (antibody)
heavy: QVQLQQSGPELVRPGSSVKISCKASGYTFTKYWLGWVKQRPGHGLEWIGDIYPGYDYTHYNEKFKDKATLTVDTSSSTAYMQLSSLTSEDSAIYYCARSDGSSTYWGQGTLVTVSAASTKGPSVFPLAPEFQLQQSGPELVKPGASVRISCKASGYSFTDYNMNWVKQSNGKSLEWVGVINPNYGSSTYNQKFKGKATLTVDQSSSTAYMQLNSLTSEDSAVYYCARKWGQLGRGFFDVWGTGTTVTVSS
light: DVLMTQTPLSLPVSLGDQASISCTSSQNIVHSNGNTYLEWYLQRPGQSPKLLIYKVSNRFSGVPDRFSGSGSGTVFTLKISRVEAEDLGVYYCFQVSHVPYTFGGGTKLEIKRTVAAPSVFIFPPQIVLSQSPAILSASPGEKVTMTCRASSSVSYMHWFQQKPGSSPKPWIYATSNLASGVPARFSGSGSGTSYSLTISRVEAEDAATYYCQQWSSSPLTFGAGTKLELKR
B3 came in with a Kd in data set [1] of 0.383 nM. In data set [2], the IC50 was 0.064 nM.
